# According to patent US8637024 (dated 2014):
# Numbering of substitutions follows the chain as printed. In names and notes the source's numbering stands.
# B1: SQTLH (clone 33) (antibody, V domains shown)
# VH: QVQLQQSGPEVVKPGASVKMSCKASGYTFTSQTLHWVRQKPGQGLDWIGYINPYNDGTDYDEKFKGKATLTSDTSTSTAYMELSSLRSEDTAVYYCAREKDNYATGAWFAYWGQGTLVTVSS
# VL: DIVMTQSPDSLAVSLGERVTMNCKSSQSLLYSTNQKNYLAWYQQKPGQSPKLLIYWASTRESGVPDRFSGSGSGTDFTLTISSVQAEDVAVYYCQQYYSYRTFGGGTKLEIK
# B2: DQTLH (clone 27, 31) (antibody, V domains shown)
# VH: B1 VH with S31D
# VL: B1 VL
# B3: M24 (CDR-H1 EQTLH) (antibody, V domains shown)
# VH: B1 VH with S31E
# VL: B1 VL
# B4: AQTLH (clone 30) (antibody, V domains shown)
# VH: B1 VH with S31A
# VL: B1 VL
# B5: GQTLH (clone 25, 37) (antibody, V domains shown)
# VH: B1 VH with S31G
# VL: B1 VL
# B6: NQTLH (clone 26, 36) (antibody, V domains shown)
# VH: B1 VH with S31N
# VL: B1 VL
# B7: EYTFH (clone 40) (antibody, V domains shown)
# VH: B1 VH with S31E, Q32Y, L34F
# VL: B1 VL
# B8: SQTIH (clone 23) (antibody, V domains shown)
# VH: B1 VH with L34I
# VL: B1 VL
# B9: M28 (CDR-H1 DYTFH) (antibody, V domains shown)
# VH: B1 VH with S31D, Q32Y, L34F
# VL: B1 VL
# B10: M22 (CDR-H1 DYTIH) (antibody, V domains shown)
# VH: B1 VH with S31D, Q32Y, L34I
# VL: B1 VL
# B11: ML28 (antibody, V domains shown)
# VH: B1 VH with Q32Y, T33V, L34I, T105V, G106P, A107G
# VL: B1 VL
# B12: ML1 (CDR-H1 SRVLS) (antibody, V domains shown)
# VH: B1 VH with Q32R, T33V, H35S
# VL: B1 VL
# B13: ML26 (antibody, V domains shown)
# VH: B1 VH with Q32Y, T33V, L34I, E99Q, K100A, D101A
# VL: B1 VL
# B14: ML11 (antibody, V domains shown)
# VH: B1 VH with Q32Y, T33V, L34I, A97V, N102S, Y103F
# VL: B1 VL
# B15: ML29 (antibody, V domains shown)
# VH: B1 VH with Q32Y, T33V, L34I, N102S, Y103L, A104T
# VL: B1 VL
# B16: M3 (CDR-H1 EYTIH) (antibody, V domains shown)
# VH: B1 VH with S31E, Q32Y, L34I
# VL: B1 VL
# B17: E95A (antibody, V domains shown)
# VH: B1 VH with Q32Y, T33V, L34I, E99A
# VL: B1 VL
# B18: m36 (antibody, V domains shown)
# VH: QVQLVQSGGGLVQPGGSLRLSCAASAFDFSDYEMSWVRQAPGKGLEWIGEINDSGNTIYNPSLKSRVTISRDNSKNTLYLQMNTLRAEDTAIYYCAIYGGNSGGEYWGQGTLVTVSS
# B19: iMabΔm36 (iMab arm) (antibody)
# chain 1: MEWSGVFMFLLSVTAGVHSQVQLQQSGPEVVKPGASVKMSCKASGYTFTSYVIHWVRQKPGQGLDWIGYINPYNDGTDYDEKFKGKATLTSDTSTSTAYMELSSLRSEDTAVYYCARAKDNAATGAWFAYWGQGTLVTVSSASTKGPSVFPLAPSSKSTSGGTAALGCLVKDYFPEPVTVSWNSGALTSGVHTFPAVLQSSGLYSLSSVVTVPSSSLGTQTYICNVNHKPSNTKVDKKVEPKSCDKTHTCPPCPAPEFEGGPSVFLFPPKPKDTLMISRTPEVTCVVVDVSHEDPEVKFNWYVDGVEVHNAKTKPREEQYNSTYRVVSVLTVLHQDWLNGKEYKCKVSNKALPASIEKTISKAKGQPREPQVYTLPPSRDELTKNQVSLTCLVKGFYPSDIAVEWESNGQPENNYKTTPPVLDSDGSFFLYSKLTVDKSRWQQGNVFSCSVLHEALHSHYTQKSLSLSPGKLEGGGGSGGGGSGGGGSGQVQLVQSGGGLVQPGGSLRLSCAASAFDFSDYEMSWVRQAPGKGLEWIGEINDSGNTIYNPSLKSRVTISRDNSKNTLYLQMNTLRAEDTAIYYCAIYGGNSGGEYWGQGTLVTVSS
# chain 2: not shown
# Molecular target: T1, human soluble CD4 (sCD4) (human, UniProt P01730)
# Experiment: not given
row,Binder,Kd [pM]
1,B1,12
2,B2,15
3,B3,9.7
4,B4,10.7
5,B5,17.3
6,B6,40.6
7,B7,11.2
8,B8,19.2
9,B9,13.2
10,B10,34.6

# Molecular target: T1, human soluble CD4 (sCD4)
# Experiment: not given
# Remark: another data set of the same source
row,Binder,Kd [pM]
1,B1,12
2,B11,1410
3,B2,15
4,B3,9.7
5,B12,2130
6,B13,3640
7,B4,10.7
8,B7,11.2
9,B8,19.2
10,B9,13.2
11,B10,34.6
12,B14,2470
13,B15,2230

# Molecular target: T1, human soluble CD4 (sCD4)
# Experiment: SPR
row,Binder,Kd [pM]
1,B11,1760
2,B3,4.2
3,B12,2140
4,B13,4140
5,B14,6720
6,B15,4830

# Molecular target: T1, human soluble CD4 (sCD4)
# Experiment: SPR
# Remark: another data set of the same source
row,Binder,Kd [pM]
1,B3,18
2,B16,33
3,B9,14
4,B10,47
5,B17,7700

# Molecular target: T1, human soluble CD4 (sCD4)
# Experiment: competition ELISA
row,Binder,binding result
1,B18,no binding
2,B19,no binding
